Several values for one entry are separate records, joined by “and”; a condition that tells them apart may be missing. Equal values may be shown once. Read-outs that look alike come from different tables or passages of the source.
How the values were obtained:
cryo-EM structure [1] = target: the molecule itself; assay: cryo-EM structure
cryo-EM structure [2] = target: the molecule itself; assay: cryo-EM structure; remark: listed apart in the source

B1: S210A DegP (enzyme)
chain: AETSSATTAQQMPSLAPMLEKVMPSVVSINVEGSTTVNTPRMPRNFQQFFGDDSPFCQEGSPFQSSPFCQGGQGGNGGGQQQKFMALGSGVIIDADKGYVVTNNHVVDNATVIKVQLSDGRKFDAKMVGKDPRSDIALIQIQNPKNLTAIKMADSDALRVGDYTVAIGNPFGLGETVTSGIVSALGRSGLNAENYENFIQTDAAINRGNAGGALVNLNGELIGINTAILAPDGGNIGIGFAIPSNMVKNLTSQMVEYGQVKRGELGIMGTELNSELAKAMKVDAQRGAFVSQVLPNSSAAKAGIKAGDVITSLNGKPISSFAALRAQVGTMPVGSKLTLGLLRDGKQVNVNLELQQSSQNQVDSSSIFNGIEGAEMSNKGKDQGVVVNNVKTGTPAAQIGLKKGDVIIGANQQAVKNIAELRKVLDSKPSVLALNIQRGDSTIYLLMQ
- stoichiometry N (cryo-EM structure [1]): 30 and 60
- stoichiometry N (cryo-EM structure [2]): 18
